How the values were obtained:
Test in all cases: enzyme inhibition kinetics
[1] = biological target: T1, ADAMTS5-2 (human ADAMTS-5 deletion mutant, C-terminal FLAG-tag) (human, UniProt Q9UNA0 262-874)
T1 sequence (looked up): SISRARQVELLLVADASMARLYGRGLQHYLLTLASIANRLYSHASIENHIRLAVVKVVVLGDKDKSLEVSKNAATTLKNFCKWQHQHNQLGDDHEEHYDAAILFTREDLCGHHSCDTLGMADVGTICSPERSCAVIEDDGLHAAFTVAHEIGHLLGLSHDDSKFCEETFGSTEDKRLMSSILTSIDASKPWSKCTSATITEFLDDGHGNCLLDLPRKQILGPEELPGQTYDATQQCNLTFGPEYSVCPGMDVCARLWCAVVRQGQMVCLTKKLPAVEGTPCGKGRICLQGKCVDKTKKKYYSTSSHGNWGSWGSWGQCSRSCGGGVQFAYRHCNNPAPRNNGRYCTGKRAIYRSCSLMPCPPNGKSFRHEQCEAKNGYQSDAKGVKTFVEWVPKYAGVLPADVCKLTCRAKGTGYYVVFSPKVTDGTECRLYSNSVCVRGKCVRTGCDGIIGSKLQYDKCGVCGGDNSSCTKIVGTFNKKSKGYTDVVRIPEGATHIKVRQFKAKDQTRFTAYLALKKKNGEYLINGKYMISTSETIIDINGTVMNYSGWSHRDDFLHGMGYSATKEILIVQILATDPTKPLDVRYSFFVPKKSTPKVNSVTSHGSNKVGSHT

[2] = biological target: T2, ADAMTS5-3 (human ADAMTS-5 deletion mutant, C-terminal FLAG-tag) (human, UniProt Q9UNA0 262-731)
T2 sequence (looked up): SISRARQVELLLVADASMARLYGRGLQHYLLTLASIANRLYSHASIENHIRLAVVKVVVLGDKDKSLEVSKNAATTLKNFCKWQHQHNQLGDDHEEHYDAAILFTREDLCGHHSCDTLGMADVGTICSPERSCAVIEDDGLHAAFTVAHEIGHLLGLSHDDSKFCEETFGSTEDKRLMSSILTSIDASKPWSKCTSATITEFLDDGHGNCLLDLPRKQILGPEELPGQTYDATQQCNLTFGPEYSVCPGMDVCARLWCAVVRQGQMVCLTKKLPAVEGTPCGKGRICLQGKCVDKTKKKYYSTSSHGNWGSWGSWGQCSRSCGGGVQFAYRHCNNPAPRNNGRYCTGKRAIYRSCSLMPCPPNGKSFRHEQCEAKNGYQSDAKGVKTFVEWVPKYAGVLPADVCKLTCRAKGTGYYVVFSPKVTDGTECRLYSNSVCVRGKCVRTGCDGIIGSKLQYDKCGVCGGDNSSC

[3] = biological target: T3, ADAMTS5-4 (human ADAMTS-5 deletion mutant, C-terminal FLAG-tag) (human, UniProt Q9UNA0 262-622)
T3 sequence (looked up): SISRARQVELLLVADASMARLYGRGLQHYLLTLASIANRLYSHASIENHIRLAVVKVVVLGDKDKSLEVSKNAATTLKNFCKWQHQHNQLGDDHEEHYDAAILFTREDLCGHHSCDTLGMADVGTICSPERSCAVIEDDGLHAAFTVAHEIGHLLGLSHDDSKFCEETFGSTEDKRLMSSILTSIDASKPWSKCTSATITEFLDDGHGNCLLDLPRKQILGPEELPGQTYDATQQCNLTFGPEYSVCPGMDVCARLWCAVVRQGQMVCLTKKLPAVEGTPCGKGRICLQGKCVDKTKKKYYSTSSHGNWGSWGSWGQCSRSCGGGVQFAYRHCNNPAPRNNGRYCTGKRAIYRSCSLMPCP

[4] = biological target: T4, ADAMTS5-5 (human ADAMTS-5, catalytic and disintegrin domain, C-terminal FLAG-tag) (human, UniProt Q9UNA0 262-566)
T4 sequence (looked up): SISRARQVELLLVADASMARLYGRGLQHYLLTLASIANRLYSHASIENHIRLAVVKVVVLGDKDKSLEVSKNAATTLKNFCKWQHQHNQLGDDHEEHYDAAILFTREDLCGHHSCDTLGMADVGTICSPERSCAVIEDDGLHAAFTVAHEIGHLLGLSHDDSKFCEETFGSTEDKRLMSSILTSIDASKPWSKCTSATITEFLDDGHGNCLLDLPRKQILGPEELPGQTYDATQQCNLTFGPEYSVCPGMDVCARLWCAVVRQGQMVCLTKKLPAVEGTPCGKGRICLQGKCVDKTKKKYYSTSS

- Ki [1]: 0.72 nM
- Ki [2]: 1 nM
- Ki [3]: 1.13 nM
- Ki [4]: 1.17 nM
B1: FLAG-tagged glycosylated human TIMP-3 (full-length tissue inhibitor of metalloproteinases 3), expressed in HEK293 (natural protein, UniProt P35625 24-211, looked up)
chain: CTCSPSHPQDAFCNSDIVIRAKVVGKKLVKEGPFGTLVYTIKQMKMYRGFTKMPHVQYIHTEASESLCGLKLEVNKYQYLLTGRVYDGKMYTGLCNFVERWDQLTLSQRKGLNYRYHLGCNCKIKSCYYLPCFVTSKNECLWTDMLSNFGYPGYQSKHYACIRQKGGYCSWYRGWAPPDKSIINATDP
modifications: glycosylated (only the 27 kDa glycosylated form remained after purification; single N-glycosylation site in the C-terminal domain)
